According to the supplement of paper PMC5998384:

Legend:
HeLa Kyoto [1] = assay: solubility in G1/S (NP-40 vs SDS abundance) (log2 ratio); higher = more soluble; settings: cell cycle stage: G1/S
HeLa Kyoto [2] = assay: melting temperature (median over replicates), in situ; higher = more thermally stable
HeLa Kyoto [3] = assay: solubility change mitosis vs G1/S (difference of NP-40 vs SDS log2 ratios) (log2 ratio difference); higher = more soluble in mitosis
HeLa Kyoto [4] = assay: thermal stability score vs G1/S (z-score of summed log2 fold changes over temperatures); higher = more thermally stable than in G1/S
[5] = cell cycle stage: early G1 (4.5 h after nocodazole release)
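For melting temperature (median over replicates), in situ in this document: HeLa Kyoto cells synchronized by double thymidine or nocodazole block, proteins quantified by TMT10plex mass spectrometry, three independent biological replicates.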
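For solubility change mitosis vs G1/S (difference of NP-40 vs SDS log2 ratios) in this document: synchronized HeLa Kyoto cells (double thymidine block for G1/S, nocodazole release for mitosis), protein amounts in NP-40 versus SDS lysates quantified by mass spectrometry, three biological replicates.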
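For solubility in G1/S (NP-40 vs SDS abundance) in this document: HeLa Kyoto cells arrested at G1/S by double thymidine block, proteins quantified by TMT10plex mass spectrometry in mild NP-40 versus SDS extracts, three biological replicates.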
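For thermal stability score vs G1/S (z-score of summed log2 fold changes over temperatures) in this document: synchronized HeLa Kyoto cells, proteins quantified by TMT10plex mass spectrometry, three biological replicates, mitosis taken 0.5 h after nocodazole release, G1/S directly after double thymidine block.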

Substance	solubility in G1/S (log2) (HeLa Kyoto [1])	melting temperature (HeLa Kyoto [2]; cell cycle stage: G1/S) [°C]	melting temperature (HeLa Kyoto [2]; cell cycle stage: mitosis) [°C]	solubility change mitosis (log2) (HeLa Kyoto [3])	thermal stability score (HeLa Kyoto [4]; [5])	thermal stability score (HeLa Kyoto [4]; cell cycle stage: mitosis)
MDVLAEEFGNLTPEQLAAPIPTVEEKWRLLPAFLKVKGLVKQHIDSFNYFINVEIKKIMKANEKVTSDADPMWYLKYLNIYVGLPDVEESFNVTRPVSPHECRLRDMTYSAPITVDIEYTRGSQRIIRNALPIGRMPIMLRSSNCVLTGKTPAEFAKLNECPLDPGGYFIVKGVEKVILIQEQLSKNRIIVEADRKGAVGASVTSSTHEKKSRTNMAVKQGRFYLRHNTLSEDIPIVIIFKAMGVESDQEIVQMIGTEEHVMAAFGPSLEECQKAQIFTQMQALKYIGNKVRRQRMWGGGPKKTKIEEARELLASTILTHVPVKEFNFRAKCIYTAVMVRRVILAQGDNKVDDRDYYGNKRLELAGQLLSLLFEDLFKKFNSEMKKIADQVIPKQRAAQFDVVKHMRQDQITNGMVNAISTGNWSLKRFKMDRQGVTQVLSRLSYISALGMMTRISSQFEKTRKVSGPRSLQPSQWGMLCPSDTPEGEACGLVKNLALMTHITTDMEDGPIVKLASNLGVEDVNLLCGEELSYPNVFLVFLNGNILGVIRDHKKLVNTFRLMRRAGYINEFVSISTNLTDRCVYISSDGGRLCRPYIIVKKQKPAVTNKHMEELAQGYRNFEDFLHESLVEYLDVNEENDCNIALYEHTINKDTTHLEIEPFTLLGVCAGLIPYPHHNQSPRNTYQCAMGKQAMGTIGYNQRNRIDTLMYLLAYPQKPMVKTKTIELIEFEKLPAGQNATVAVMSYSGYDIEDALVLNKASLDRGFGRCLVYKNAKCTLKRYTNQTFDKVMGPMLDAATRKPIWRHEILDADGICSPGEKVENKQVLVNKSMPTVTQIPLEGSNVPQQPQYKDVPITYKGATDSYIEKVMISSNAEDAFLIKMLLRQTRRPEIGDKFSSRHGQKGVCGLIVPQEDMPFCDSGICPDIIMNPHGFPSRMTVGKLIELLAGKAGVLDGRFHYGTAFGGSKVKDVCEDLVRHGYNYLGKDYVTSGITGEPLEAYIYFGPVYYQKLKHMVLDKMHARARGPRAVLTRQPTEGRSRDGGLRLGEMERDCLIGYGASMLLLERLMISSDAFEVDVCGQCGLLGYSGWCHYCKSSCHVSSLRIPYACKLLFQELQSMNIIPRLKLSKYNE [POLR3B]	-0.184	48.9	49.6	-0.161	0.664	1.01
MGAYLSQPNTVKCSGDGVGAPRLPLPYGFSAMQGWRVSMEDAHNCIPELDSETAMFSVYDGHGGEEVALYCAKYLPDIIKDQKAYKEGKLQKALEDAFLAIDAKLTTEEVIKELAQIAGRPTEDEDEKEKVADEDDVDNEEAALLHEEATMTIEELLTRYGQNCHKGPPHSKSGGGTGEEPGSQGLNGEAGPEDSTRETPSQENGPTAKAYTGFSSNSERGTEAGQVGEPGIPTGEAGPSCSSASDKLPRVAKSKFFEDSEDESDEAEEEEEDSEECSEEEDGYSSEEAENEEDEDDTEEAEEDDEEEEEEMMVPGMEGKEEPGSDSGTTAVVALIRGKQLIVANAGDSRCVVSEAGKALDMSYDHKPEDEVELARIKNAGGKVTMDGRVNGGLNLSRAIGDHFYKRNKNLPPEEQMISALPDIKVLTLTDDHEFMVIACDGIWNVMSSQEVVDFIQSKISQRDENGELRLLSSIVEELLDQCLAPDTSGDGTGCDNMTCIIICFKPRNTAELQPESGKRKLEEVLSTEGAEENGNSDKKKKAKRD [PPM1G]	0.104	48.4	49.4	-0.0729	2.65	8.41
MGNVLAASSPPAGPPPPPAPALVGLPPPPPSPPGFTLPPLGGSLGAGTSTSRSSERTPGAATASASGAAEDGACGCLPNPGTFEECHRKCKELFPIQMEGVKLTVNKGLSNHFQVNHTVALSTIGESNYHFGVTYVGTKQLSPTEAFPVLVGDMDNSGSLNAQVIHQLGPGLRSKMAIQTQQSKFVNWQVDGEYRGSDFTAAVTLGNPDVLVGSGILVAHYLQSITPCLALGGELVYHRRPGEEGTVMSLAGKYTLNNWLATVTLGQAGMHATYYHKASDQLQVGVEFEASTRMQDTSVSFGYQLDLPKANLLFKGSVDSNWIVGATLEKKLPPLPLTLALGAFLNHRKNKFQCGFGLTIG [TOMM40]	0.262	62.9	61.7	-0.17	-1.53	-3.48
MAQRGGARRPRGDRERLGSRLRALRPGREPRQSEPPAQRGPPPSGRPPARSTASGHDRPTRGAAAGARRPRMKKKTRRRSTRSEELTRSEELTLSEEATWSEEATQSEEATQGEEMNRSQEVTRDEESTRSEEVTREEMAAAGLTVTVTHSNEKHDLHVTSQQGSSEPVVQDLAQVVEEVIGVPQSFQKLIFKGKSLKEMETPLSALGIQDGCRVMLIGKKNSPQEEVELKKLKHLEKSVEKIADQLEELNKELTGIQQGFLPKDLQAEALCKLDRRVKATIEQFMKILEEIDTLILPENFKDSRLKRKGLVKKVQAFLAECDTVEQNICQETERLQSTNFALAE [BAG1]	0.0346	54.3	53.7	0.0327	0.492	-2.14
MAGKSSLFKVILLGDGGVGKSSLMNRYVTNKFDTQLFHTIGVEFLNKDLEVDGHFVTMQIWDTAGQERFRSLRTPFYRGSDCCLLTFSVDDSQSFQNLSNWKKEFIYYADVKEPESFPFVILGNKIDISERQVSTEEAQAWCRDNGDYPYFETSAKDATNVAAAFEEAVRRVLATEDRSDHLIQTDTVNLHRKPKPSSSCC [RAB9A]	-0.0893	54.3	54.2	-0.207	-1.81	-3.52
MAAAAPVAADDDERRRRPGAALEDSRSQEGANGEAESGELSRLRAELAGALAEMETMKAVAEVSESTKAEAVAAVQRQCQEEVASLQAILKDSISSYEAQITALKQERQQQQQDCEEKERELGRLKQLLSRAYPLDSLEKQMEKAHEDSEKLREIVLPMEKEIEELKAKLLRAEELIQEIQRRPRHAPSLHGSTELLPLSRDPSPPLEPLEELSGDGGPAAEAFAHNCDDSASISSFSLGGGVGSSSSLPQSRQGLSPEQEETASLVSTGTLVPEGIYLPPPGYQLVPDTQWEQLQTEGRQLQKDLESVSRERDELQEGLRRSNEDCAKQMQVLLAQVQNSEQLLRTLQGTVSQAQERVQLQMAELVTTHKCLHHEVKRLNEENQGLRAEQLPSSAPQGSQQEQGEEESLPSSVPELQQLLCCTRQEARARLQAQEHGAERLRIEIVTLREALEEETVARASLEGQLRVQREETEVLEASLCSLRTEMERVQQEQSKAQLPDLLSEQRAKVLRLQAELETSEQVQRDFVRLSQALQVRLERIRQAETLEQVRSIMDEAPLTDVRDIKDT [RABEP2]	0.504	49	50.6	0.304	-0.553	0.297
MEGSGEQPGPQPQHPGDHRIRDGDFVVLKREDVFKAVQVQRRKKVTFEKQWFYLDNVIGHSYGTAFEVTSGGSLQPKKKREEPTAETKEAGTDNRNIVDDGKSQKLTQDDIKALKDKGIKGEEIVQQLIENSTTFRDKTEFAQDKYIKKKKKKYEAIITVVKPSTRILSIMYYAREPGKINHMRYDTLAQMLTLGNIRAGNKMIVMETCAGLVLGAMMERMGGFGSIIQLYPGGGPVRAATACFGFPKSFLSGLYEFPLNKVDSLLHGTFSAKMLSSEPKDSALVEESNGTLEEKQASEQENEDSMAEAPESNHPEDQETMETISQDPEHKGPKERGSKKDYIQEKQRRQEEQRKRHLEAAALLSERNADGLIVASRFHPTPLLLSLLDFVAPSRPFVVYCQYKEPLLECYTKLRERGGVINLRLSETWLRNYQVLPDRSHPKLLMSGGGGYLLSGFTVAMDNLKADTSLKSNASTLESHETEEPAAKKRKCPESDS [TRMT6]	0.0845	54.9	56.2	0.019	2.23	0.0663
LTN1	-0.347	50.1	48.8	-0.0806	0.696	1.04
MSLLLLLLLVSYYVGTLGTHTEIKRVAEEKVTLPCHHQLGLPEKDTLDIEWLLTDNEGNQKVVITYSSRHVYNNLTEEQKGRVAFASNFLAGDASLQIEPLKPSDEGRYTCKVKNSGRYVWSHVILKVLVRPSKPKCELEGELTEGSDLTLQCESSSGTEPIVYYWQRIREKEGEDERLPPKSRIDYNHPGRVLLQNLTMSYSGLYQCTAGNEAGKESCVVRVTVQYVQSIGMVAGAVTGIVAGALLIFLLVWLLIRRKDKERYEEEERPNEIREDAEAPKARLVKPSSSSSGSRSSRSGSSSTRSTANSASRSQRTLSTDAAPQPGLATQAYSLVGPEVRGSEPKKVHHANLTKAETTPSMIPSQSRAFQTV [CLMP]	0.0444	55	55.4	-0.0674	-1.13	-0.751
MARNAEKAMTALARFRQAQLEEGKVKERRPFLASECTELPKAEKWRRQIIGEISKKVAQIQNAGLGEFRIRDLNDEINKLLREKGHWEVRIKELGGPDYGKVGPKMLDHEGKEVPGNRGYKYFGAAKDLPGVRELFEKEPLPPPRKTRAELMKAIDFEYYGYLDEDDGVIVPLEQEYEKKLRAELVEKWKAEREARLARGEKEEEEEEEEEINIYAVTEEESDEEGSQEKGGDDSQQKFIAHVPVPSQQEIEEALVRRKKMELLQKYASETLQAQSEEARRLLGY [ISY1]	0.128	46.7	51.2	0.254	-2.75	-1.6
MLRACQLSGVTAAAQSCLCGKFVLRPLRPCRRYSTSGSSGLTTGKIAGAGLLFVGGGIGGTILYAKWDSHFRESVEKTIPYSDKLFEMVLGPAAYNVPLPKKSIQSGPLKISSVSEVMKESKQPASQLQKQKGDTPASATAPTEAAQIISAAGDTLSVPAPAVQPEESLKTDHPEIGEGKPTPALSEEASSSSIRERPPEEVAARLAQQEKQEQVKIESLAKSLEDALRQTASVTLQAIAAQNAAVQAVNAHSNILKAAMDNSEIAGEKKSAQWRTVEGALKERRKAVDEAADALLKAKEELEKMKSVIENAKKKEVAGAKPHITAAEGKLHNMIVDLDNVVKKVQAAQSEAKVVSQYHELVVQARDDFKRELDSITPEVLPGWKGMSVSDLADKLSTDDLNSLIAHAHRRIDQLNRELAEQKATEKQHITLALEKQKLEEKRAFDSAVAKALEHHRSEIQAEQDRKIEEVRDAMENEMRTQLRRQAAAHTDHLRDVLRVQEQELKSEFEQNLSEKLSEQELQFRRLSQEQVDNFTLDINTAYARLRGIEQAVQSHAVAEEEARKAHQLWLSVEALKYSMKTSSAETPTIPLGSAVEAIKANCSDNEFTQALTAAIPPESLTRGVYSEETLRARFYAVQKLARRVAMIDETRNSLYQYFLSYLQSLLLFPPQQLKPPPELCPEDINTFKLLSYASYCIEHGDLELAAKFVNQLKGESRRVAQDWLKEARMTLETKQIVEILTAYASAVGIGTTQVQPE [IMMT]	0.38	53.2	52	0.0268	0.171	-1.21
MPEEGSGCSVRRRPYGCVLRAALVPLVAGLVICLVVCIQRFAQAQQQLPLESLGWDVAELQLNHTGPQQDPRLYWQGGPALGRSFLHGPELDKGQLRIHRDGIYMVHIQVTLAICSSTTASRHHPTTLAVGICSPASRSISLLRLSFHQGCTIASQRLTPLARGDTLCTNLTGTLLPSRNTDETFFGVQWVRP [CD70]	0.258	54.9	57.1	-0.0934	-2.35	-1.58
MAFAETYPAASSLPNGDCGRPRARPGGNRVTVVLGAQWGDEGKGKVVDLLAQDADIVCRCQGGNNAGHTVVVDSVEYDFHLLPSGIINPNVTAFIGNGVVIHLPGLFEEAEKNVQKGKGLEGWEKRLIISDRAHIVFDFHQAADGIQEQQRQEQAGKNLGTTKKGIGPVYSSKAARSGLRMCDLVSDFDGFSERFKVLANQYKSIYPTLEIDIEGELQKLKGYMEKIKPMVRDGVYFLYEALHGPPKKILVEGANAALLDIDFGTYPFVTSSNCTVGGVCTGLGMPPQNVGEVYGVVKAYTTRVGIGAFPTEQDNEIGELLQTRGREFGVTTGRKRRCGWLDLVLLKYAHMINGFTALALTKLDILDMFTEIKVGVAYKLDGEIIPHIPANQEVLNKVEVQYKTLPGWNTDISNARAFKELPVNAQNYVRFIEDELQIPVKWIGVGKSRESMIQLF [ADSS]	0.288	57.5	56.5	-0.0978	-2.13	-2.82
RREB1	-0.318	49.4	50.8	0.214	0.176	1.2
